{"source": "patent US20220152100A1", "about": "“METHODS FOR CONTROLLED ACTIVATION OR ELIMINATION OF THERAPEUTIC CELLS” (Bellicum Pharmaceuticals, Inc., priority 2014, published 2022)", "molecules": {"B1": {"name": "D327G: chimeric modified Caspase-9 polypeptide (protein)", "chain": "VDGFGDVGALESLRGNADLAYILSMEPCGHCLIINNVNFCRESGLRTRTGSNIDCEKLRRRFSSLHFMVEVKGDLTAKKMVLALLELARQDHGALDCCVVVILSHGCQASHLQFPGAVYGTDGCPVSVEKIVNIFNGTSCPSLGGKPKLFFIQACGGEQKDHGFEVASTSPEDESPGSNPEPDATPFQEGLRTFGQLDAISSLPTPSDIFVSYSTFPGFVSWRDPKSGSWYVETLDDIFEQWAHSEDLQSLLLRVANAVSVKGIYKQMPGCFNFLRKKLFFKTSASRA"}, "B2": {"name": "Q328R: chimeric modified Caspase-9 polypeptide (protein)", "chain": "VDGFGDVGALESLRGNADLAYILSMEPCGHCLIINNVNFCRESGLRTRTGSNIDCEKLRRRFSSLHFMVEVKGDLTAKKMVLALLELARQDHGALDCCVVVILSHGCQASHLQFPGAVYGTDGCPVSVEKIVNIFNGTSCPSLGGKPKLFFIQACGGEQKDHGFEVASTSPEDESPGSNPEPDATPFQEGLRTFDRLDAISSLPTPSDIFVSYSTFPGFVSWRDPKSGSWYVETLDDIFEQWAHSEDLQSLLLRVANAVSVKGIYKQMPGCFNFLRKKLFFKTSASRA"}, "B3": {"name": "Q328K: chimeric modified Caspase-9 polypeptide (protein)", "chain": "VDGFGDVGALESLRGNADLAYILSMEPCGHCLIINNVNFCRESGLRTRTGSNIDCEKLRRRFSSLHFMVEVKGDLTAKKMVLALLELARQDHGALDCCVVVILSHGCQASHLQFPGAVYGTDGCPVSVEKIVNIFNGTSCPSLGGKPKLFFIQACGGEQKDHGFEVASTSPEDESPGSNPEPDATPFQEGLRTFDKLDAISSLPTPSDIFVSYSTFPGFVSWRDPKSGSWYVETLDDIFEQWAHSEDLQSLLLRVANAVSVKGIYKQMPGCFNFLRKKLFFKTSASRA"}, "B4": {"name": "F326K: chimeric modified Caspase-9 polypeptide (protein)", "chain": "VDGFGDVGALESLRGNADLAYILSMEPCGHCLIINNVNFCRESGLRTRTGSNIDCEKLRRRFSSLHFMVEVKGDLTAKKMVLALLELARQDHGALDCCVVVILSHGCQASHLQFPGAVYGTDGCPVSVEKIVNIFNGTSCPSLGGKPKLFFIQACGGEQKDHGFEVASTSPEDESPGSNPEPDATPFQEGLRTKDQLDAISSLPTPSDIFVSYSTFPGFVSWRDPKSGSWYVETLDDIFEQWAHSEDLQSLLLRVANAVSVKGIYKQMPGCFNFLRKKLFFKTSASRA"}, "B5": {"name": "D327R: chimeric modified Caspase-9 polypeptide (protein)", "chain": "VDGFGDVGALESLRGNADLAYILSMEPCGHCLIINNVNFCRESGLRTRTGSNIDCEKLRRRFSSLHFMVEVKGDLTAKKMVLALLELARQDHGALDCCVVVILSHGCQASHLQFPGAVYGTDGCPVSVEKIVNIFNGTSCPSLGGKPKLFFIQACGGEQKDHGFEVASTSPEDESPGSNPEPDATPFQEGLRTFRQLDAISSLPTPSDIFVSYSTFPGFVSWRDPKSGSWYVETLDDIFEQWAHSEDLQSLLLRVANAVSVKGIYKQMPGCFNFLRKKLFFKTSASRA"}, "B6": {"name": "D327K: chimeric modified Caspase-9 polypeptide (protein)", "chain": "VDGFGDVGALESLRGNADLAYILSMEPCGHCLIINNVNFCRESGLRTRTGSNIDCEKLRRRFSSLHFMVEVKGDLTAKKMVLALLELARQDHGALDCCVVVILSHGCQASHLQFPGAVYGTDGCPVSVEKIVNIFNGTSCPSLGGKPKLFFIQACGGEQKDHGFEVASTSPEDESPGSNPEPDATPFQEGLRTFKQLDAISSLPTPSDIFVSYSTFPGFVSWRDPKSGSWYVETLDDIFEQWAHSEDLQSLLLRVANAVSVKGIYKQMPGCFNFLRKKLFFKTSASRA"}}, "test_system": "HEK293T/16 cells", "test": "SEAP-based surrogate killing assay of iCasp9 mutants", "assay_type": "cell-based, human", "conditions": "in words, versus wild type", "description": "Early passage HEK293T/16 cells (ATCC, Manassas, Va.) were maintained in IMDM, GlutaMAX™ (Life Technologies, Carlsbad, Calif.) supplemented with 10% FBS, 100 U/mL penicillin, and 100 […] until transfection in a humidified, 37° C., 5% CO2/95% air atmosphere. Cells in logarithmic-phase growth were transiently transfected with 800 ng to 2 μg of expression plasmid encoding iCasp9 mutants and 500 ng of an expression plasmid encoding SRα promoter driven SEAP per million cells in 15-mL conical tubes. […] GeneJammer® Transfection Reagent at a ratio of 3 μl per ug of plasmid DNA was used to transiently transfect HEK293T/16 cells in the absence of antibiotics. 100 μl or 2 mL of the transfection mixture was added to each well in 96-well or 6-well plate, respectively.\nBriefly, after 65° C. heat denaturation for 45 minutes to reduce background caused by endogenous (and serum-derived) alkaline phosphatases that are sensitive to heat, 5 μl of supernatants was added to 95 μl of PBS and added to 100 μl of substrate buffer, containing 1 μl of 100 mM 4-methylumbelliferyl phosphate (4-MUP; Sigma, St. Louis, Mo.) re-suspended in 2 M diethanolamine. Hydrolysis of 4-MUP by SEAP produces a fluorescent […] with excitation/emission (355/460 nm), which can be easily measured. Assays were performed in black opaque 96-well plates to minimize fluorescence leakage between wells. […] of the mixture was seeded onto each well of a 96-well plate. […] For the assay, 4-methylumbelliferyl phosphate substrate was hydrolyzed by SEAP to 4-methylumbelliferon, a metabolite that can be excited with 364 nm and detected with an emission filter of 448 nm. Since SEAP is used as a marker for cell viability, reduced SEAP reading corresponds with increased iCaspase-9 activities."}
{"molecule": "B1", "values": [{"measurement": "effect on basal / catalytic activity", "value": "did not lower basal activity"}]}
{"molecule": "B2", "values": [{"measurement": "effect on basal / catalytic activity", "value": "did not lower basal activity"}]}
{"molecule": "B3", "values": [{"measurement": "effect on basal / catalytic activity", "value": "did not lower basal activity"}]}
{"molecule": "B4", "values": [{"measurement": "effect on basal / catalytic activity", "value": "did not lower basal activity"}]}
{"molecule": "B5", "values": [{"measurement": "effect on basal / catalytic activity", "value": "did not lower basal activity"}]}
{"molecule": "B6", "values": [{"measurement": "effect on basal / catalytic activity", "value": "did not lower basal activity"}]}
